Assay: soluble fraction after stress (log2 fold change); higher = more stays soluble; pooled small domains, quantitative proteomics
Settings: stress: 50 degC
Outline: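 The stress applied to every library was 50°C. These custom libraries of small protein domains were pooled and measured at high throughput with quantitative proteomics as the read-out. Aggregation propensity is expressed as the base-two logarithm of the fold change in how much of each protein remains soluble. The higher the value, the more of that protein stays in solution.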

First: HMNTEVDKVLLRSGEAYFGEVLLRNDELVMMKTQDGARFQFPVSEIKSIEKVSVADALRHINS
Second: HMSPFYALDEVDSFLDGVNVERLAALIARQAEQAQFLVVSHRRPMIGASTRTIGVTQARGAHTQVVGLP
The “soluble fraction (log2)” value of the first is higher: 0.0758 for the first, -0.25 for the second.

Going from “HMDQVYYDLKSLIELLPADQMEVLKMRYFEELSFKKIAQKIDVSINTALGRMRYALINLRALSKKHHID” to “HMTRNEFMTALRKRLSHLPAEEQDAALKYYEEYFDEAESEEEAARQLGSPDAIADRILADYGAG”, the “soluble fraction (log2)” value rises from -0.189 to 0.0132.

Compared with “HMFAVPAPEVDDILSEKKVDVLLLGPQVRYLLEQFTEKLKDKNIPIGVIPMVDYGMMNGSKVLALAEELIG”, “HMDSKPNDLLFVYVSQLIRSLTLNSSKKDSELADELEVSISQIRIWLKKLINEQLIVKESKPVKYRWKG” is lower in “soluble fraction (log2)” value: -0.0132 for the first, -2.95 for the second.

“HMDQILIHLKEGIDVTDVQPMLKALDLNVRMFNRDKNIIVISVLNRELDAIPQTIAALRPWEELFDSA” and “HMPNPSAGRVHIDALLPFDRVEVTDMQGSLLLDHSFSPRRAVDLDLNARGTLLYTLWSKGHLLGKGRVVR” are within 0.2 log units of each other in “soluble fraction (log2)” value: -0.00536 for the first, 0.0169 for the second.

First: HMDGVSLLFKLMETLPEQQKTILHLRDVEQLEFAEIAKITNTSQANVRVALSRARKKIKDLLLKQY
Second: HMAFIEIMTEGDADGRGFQYPIPTYSITRDFDWSETENNKLLFEMTAKYGTPYFSNYINSDMEPSDV
The “soluble fraction (log2)” value of the first is lower: -2.17 for the first, -0.535 for the second.

First: HMEQIETIFLSAAPYARTHIIHLLETSELFRDKYLTIVETSNGLLIYTEDKNRLLGILNSLT
Second: HMGQELTMPDLKSMSRSNAEEKLKKMGLKLGAVFEENAKEPAGTVINQDPRSGSKITKGQTVDITVSLGEK
The “soluble fraction (log2)” value of the first is lower: -1.9 for the first, 0.131 for the second.

Compared with “HMYLYADIYKKLEEKIKNMEVGEKLPSERAMVQEYGVSRNVLREALVLLSERGLIEIRPGKGSYVTNQQ”, “HMLMLTPGQVSNSLNVSTATVRRWSARFARHLSPQPPNRKRSYTPDDLATLARVRDLSASGTSLAQIDIAL” is lower in “soluble fraction (log2)” value: -0.436 for the first, -2.51 for the second.

“HMTKRTEPSILQNFDTEIAELIAKNRGISIMDALRIFLASKTHEMLENDEMKLWYFSPLAVFDMWENE” and “HMSGDYRALYSSLPPERASSVVDALNVAGIPYRIQDSTGAIMVPAEQIYDARIRLAGQGLGK” are within 0.2 log units of each other in “soluble fraction (log2)” value: 0.088 for the first, 0.227 for the second.

First: HMIYQNVINLLKNRLNSSIYNIGDLLPSEKELAEHYDVSRNTLRKALKTLEEEGMIERRHGSGTYLRNK
Second: HMGQVGIPFSDFLAEVENGQVREVVIKGNDISGTFNDNRGFSTYAPNDPNLVEKLTKRGVVINAQPTE
The “soluble fraction (log2)” value of the first is lower: -0.969 for the first, 0.0645 for the second.

First: HMEFENIEQRKQYWSDLYRELKAGQDAYAKELKKGTEGYTQDELDILKEFTDEAKKQMEAAGVEATDEFAS
Second: HMPTLNIVDGHIAASDGVRILSIHNVTGRRYATSSKLPAGIYIVVLMPAKAETPLTVKVIVEA
The “soluble fraction (log2)” value of the first is higher: -0.187 for the first, -1.6 for the second.

“HMESDAIAAAIAALPARYREVLLLRYDNGFSYSEISKALDMTEAAVRKTVQRAKEALQRTLQIQEEDT” and “HMVEYFDDENLDAFIGRESDSYTEKEIEQFREILYTMNQKEVADWNRSLTIRGINIPNDLKDEMIMMI” are within 0.2 log units of each other in “soluble fraction (log2)” value: -0.471 for the first, -0.438 for the second.

Going from “HMITAEQENILFEKASDDISNNIINKGIWTKAYSQAGGDESKQKAIYIDLLVNYYKMLIKAGEEFEDI” to “HMDTMINLIGLNLKKAKKELSNLGVNVKKVRYKKSSVYDEGVVIDQSIEAGRNIKNGDFITITVSSGKA”, the “soluble fraction (log2)” value rises from -1.39 to 0.428.

Going from “HMKNENSLLVSRLAEEKIINRAKLVLMEYLKLSEPQAHRYIEKQAMDLQISRAEVAARVLETYE” to “HMQGISGIERSLLDALAFEPAGLDALQARTGLDTPTLQALLMGLELQGHVARLPGSLFQRLVR”, the “soluble fraction (log2)” value falls from -0.0477 to -0.523.

“HMGEKVIAVSGGFDPIHVGHLRMMQDAAQHGRLVVIVNSDEWLLKKKGYVFMPWEERAELIGAYDFVDE” and “HMQSNIHELQKKLNEALQALSEDHRAVVTMFDIQGMPHAEISKILGVSEGTVRSRLYYAHQQLQGHL” are within 0.2 log units of each other in “soluble fraction (log2)” value: -0.977 for the first, -1.03 for the second.

Compared with “HMDAVSYTQFMQDAKAGRIKKVIVHQSGILDVTTTEGRRFNLTSPGDLWMVGDLVKDGVDVVGAP”, “HMRMLTKRRQDLLLELLEERGSITVSEVKDMLDASESTIRRDITALDEEGKLVKVFGGAVAAR” is lower in “soluble fraction (log2)” value: -0.0657 for the first, -0.272 for the second.

Going from “HMGPLTMGQRIVRLRTQAGLSQDALAEQLGVSRQSVSKWETDGSVPDLDRLVKLSKVFGVTLDELVKG” to “HMDKELILLWDRVKSKVWQMDIQDSQVANWFQRNYHLTVRLRDFDPPVPPDKFTAEQLASFIKDIERHT”, the “soluble fraction (log2)” value falls from -0.024 to -0.597.

Compared with “HMDLEMLEVEDTIKDLLSQHQKINAIKYYRNYMSEQLNVDMGLRQAKDTIDAIGRGATVDLSVGY”, “HMAEQLGNSRTANMVMLGAMIERTGVISIDSAMEALKATFGPKKEHLLPINRQAMEAGAAAARAV” is higher in “soluble fraction (log2)” value: -0.0705 for the first, 0.303 for the second.

First: HMGSLNDQVMKYIDALPSAFNKRELDFLIERGVKEFALNGEYLEKAIINEYKLTADTYHRER
Second: HMGTLSLLVQKLMAVGLEGAKASEIVERFDRERIERQINALPSRKIKSSRTGFLIRAIELDIPVE
The “soluble fraction (log2)” value of the first is higher: 0.0641 for the first, -2.09 for the second.

“HMRPQYVDLFTKLSAEEAGAITSKLKELKVEYQLADNGSTIKVPQKDAAEIRLELANEGLPA” and “HMGQVSEAGELEVAADRVIAANPEAVTKYKSGNENILQFLVGQMMKETKGAANPQVAAEILRKKIV” are within 0.2 log units of each other in “soluble fraction (log2)” value: 0.141 for the first, 0.254 for the second.

“HMNLYERFPIHELWKETFNETLDEEEHITFITSEFKPENIVLGQGFIAAPSKKDAVDWLKVIRTVLIFYDS” and “HMSLTAQVFTDRGKVLLSENKFTEAIDQFTKALAMDKVYIEALNRRIEAYQHLGLTELAAKDEALLGTL” are within 0.2 log units of each other in “soluble fraction (log2)” value: -0.941 for the first, -0.755 for the second.

“HMIDRADLWEALRKLPEDTLKLFSLHFEKGMTHDEISKHTDIPVGTVKTKLRRGLIEARKLAREF” and “HMKLVESALSILEEAVDRDFHGNLGDAARYFDIPYQTIYSWLKSRKRVPSLRALEPVLEKLGVSFTT” are within 0.2 log units of each other in “soluble fraction (log2)” value: -0.795 for the first, -0.896 for the second.

First: HMYAMTAEDWIVSGNRKYINDDLQGAIADYTKAIEIDPNYAAIYLVRGKAKYELKNYQGAIEDYTKAIE
Second: HMQNFLSITSKEKIDIGNFQLISFKFENNLYDYVISGNKSELLIFQEKTIENNNENIEKITSNF
The “soluble fraction (log2)” value of the first is higher: -1.13 for the first, -2.06 for the second.

Going from “HMSDTSAIEKIIDEVLSDESSQKAINDIKNGNEKVYGFLVGQVMKKSQGKANPGLVQKMLREKIAK” to “HMWSNTAVIDRIRQLHEEGQPISSQSVQVNHKSLYMAAIKRFRGWKRAVEAAGIDYRQIRLR”, the “soluble fraction (log2)” value falls from 0.212 to -1.92.

“HMGQARQSAIRELGNDPTSGKKITVRSGRYGPYVTDGEVNASLRKGDDPQTIDLDRAIELLAARREKLG” and “HMEQNTKAYEQVRTLTDLLNQYRHEYYNLSAPSVSDQEYDRLFDALAALEKQTGIVMSNSPTQTVG” are within 0.2 log units of each other in “soluble fraction (log2)” value: 0.13 for the first, 0.0359 for the second.

“HMLLQENRKLHSKLEELQLISRAKAVLIEYLKLTEPQAHRYIEKQAMDLGLTRPQVALNILKTYE” and “HMIFDPTTLPEKQLLVYGIISSHPGLNAKQISEMLTLKKSSIETAIKGLRKKEIIEYEGTTRNGG” are within 0.2 log units of each other in “soluble fraction (log2)” value: -0.202 for the first, -0.182 for the second.

First: HMTIENTDTFLETLWEQVQRASVDENGIITSRVLIWDEGTKLDEILSWFDKRHSLGALYLQFG
Second: HMGAVVSPMPGVILDIKVKEGDSVSEGQTVIILEAMKMENEIVSEFTGTVSAIRVKKGDTVDTDAVLVEI
The “soluble fraction (log2)” value of the first is lower: -2.47 for the first, -0.393 for the second.

Going from “HMSGRPPTYTAEERSAVIAAALSRPADLGLPFASWTLDRLVAYLGEKGIGMKRSRMSEVLLAEGLKW” to “HMKLVTIPNVIGKTKEDAMKTLKDLGVTVTVETKESEKDDGTVIAQSKAEGTKLTAGENVTITVSKKKK”, the “soluble fraction (log2)” value rises from -1.25 to 0.139.

With “HMEDNYYENKINYLFGYLDEADKEISVNSILDFHLAHRTNPEFVFEPKKNTNPLIWKYLSNSNLLY” the “soluble fraction (log2)” value was -0.0177.

Reference: the domain aggregation screens of Martell et al. (2025)
